Assay [1] deals with T1, human ENA-78 (human, UniProt P42830 37-114, limits assumed).
T1 construct: also called hENA-78; CXCL5
Kind of assay: Biacore SPR, KL: anti-mouse Fc capture. (In general: Surface plasmon resonance follows binding to a sensor surface in real time, without labels.)
Experimental: (§1) Supernatant or purified antibody from parental mouse mAb is captured on the anti-mouse IgG-Fc surface. Defined concentrations of each analyte (IL8, Gro-band ENA-78) are passed over the immobilized or captured antibody surface, a separate capture event is used for each analyte injection. After each injection of analyte the surface is regenerated by injection
(§2) An injection of buffer is also injected over the antibody captured surface and this is used for double referencing. The data is analyzed using the analysis software inherent to the machine, using the 1:1 model of binding.

Assay [2] has as its target T2, human Gro-beta (human, UniProt P19875 35-107).
T2 construct: also called Gro-β; hGROβ
The assay can be described thus: Biacore SPR, KL: anti-mouse Fc capture.
Experimental: as §1, §2

Assay [3] deals with T3, human IL-8 (human, UniProt P10145 28-99, limits assumed).
T3 construct: also called hIL-8; hIL8
Kind of assay: Biacore SPR, KL: anti-mouse Fc capture.
Experimental: as §1, §2

In assay [4] the target is T1, human ENA-78. The assay can be described thus: Biacore SPR, BE: mAb amine-coupled.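 Further: analytes IL-8, Gro-b and ENA-78 flowed at defined concentrations over the antibody surface, buffer injection used for double referencing, kinetics fitted to a 1:1 binding model.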
Experimental: (§3) For experiment designated BE, purified antibodies directly immobilized to the chip by amine coupling was used.
(§4) Defined concentrations of each analyte (IL8, Gro-band ENA-78) are passed over the immobilized or captured antibody surface, a separate capture event is used for each analyte injection. After each injection of analyte the surface is regenerated by injection
as §2
Assay [5] deals with T2, human Gro-beta. Kind of assay: Biacore SPR, BE: mAb amine-coupled.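 Further: analytes IL-8, Gro-b and ENA-78 flowed at defined concentrations over the antibody surface, buffer injection used for double referencing, kinetics fitted to a 1:1 binding model.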
Experimental: as §3, §4, §2
Assay [6] addresses T3, human IL-8. The assay can be described thus: Biacore SPR, BE: mAb amine-coupled.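 Further: analytes IL-8, Gro-b and ENA-78 flowed at defined concentrations over the antibody surface, buffer injection used for double referencing, kinetics fitted to a 1:1 binding model.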
Experimental: as §3, §4, §2
The target of assay [7] is T1, human ENA-78. The assay can be described thus: TRFIA, chemokine coated on plate, biotinylated anti-mouse IgG and streptavidin-europium detection.
Experimental: (§5) Briefly, each antigen (human IL-8, Gro-alpha, Gro-beta, Gro-gamma, GCP-2, and ENA-78, and hIL-18 when used as negative control) is individually coated onto a 96-well immunofluorescent plate. The plates are then washed and blocked with a commercially available blocking solution. Blocking solution is emptied and samples containing the mAb are added into each well and incubated for 40 to 60 minutes (this allows the mAb to bind to the target chemokines). The plates are then washed again and a detection Ab is added to each well. […] The detection antibody is conjugated to either europium or biotin. Following another round of washing, to remove unbound detection Ab, a solution of streptavidin-europium was added to biotin detected assays. Streptavidin-europium binds to the biotin allowing for detection. After a final wash to remove unbound streptavidin-europium, or in the case of the humanized MAb assay after the europium conjugate secondary is washed, each well is filled with a chelating detergent solution to activate the europium producing fluorescence. The greater the fluorescence recorded is directly proportionate to the amount of detection Ab present in the well which is directly linked and proportionate to the amount of the chemokine binding mAb.
Assay [8] addresses T2, human Gro-beta. The description is as above.
Experimental: as §5
Assay [9] has as its target T3, human IL-8. The assay is described as above.
Experimental: as §5
Assay [10] concerns the target T4, human Gro-gamma (human, UniProt P19876 35-107).
T4 construct: also called Gro-γ; CXCL3
Described as above.
Experimental: as §5

Assay [11] has as its target T5, human Gro-alpha (human, UniProt P09341 35-107).
T5 construct: also called Gro-α; hGROα
Described as above.
Experimental: as §5

Assay [12] addresses T1, human ENA-78. The assay can be described thus: TRFIA, chemokine coated on plate, biotinylated anti-human IgG Fab2 reagent and streptavidin-europium detection.
Experimental: as §5
Assay [13] concerns the target T6, human GCP-2 (human, UniProt P80162 38-114, limits assumed).
T6 construct: also called hGCP-2; CXCL6
The description is as above.
Experimental: as §5

The target of assay [14] is T2, human Gro-beta. Described as above.
Experimental: as §5
In assay [15] the target is T3, human IL-8. Described as above.
Experimental: as §5
In assay [16] the target is T4, human Gro-gamma. Described as above.
Experimental: as §5
Assay [17] has as its target T5, human Gro-alpha. The assay is described as above.
Experimental: as §5
A further assay concerns the target T7, hIL-18 (Homo sapiens, UniProt Q14116).
T7 construct: Printed on the sheets: 'hIL-18 run as a negative control'; also called human IL-18
Kind of assay: TRFIA, hIL-18 coated on plate, biotinylated anti-human IgG Fab2 reagent and streptavidin-europium detection.

The target in assay [18] is T2, human Gro-beta. Kind of assay: Biacore SPR, BE: mAb amine-coupled; BE: mAb amine-coupled.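 Further: analytes IL-8, Gro-b and ENA-78 flowed at defined concentrations over the antibody surface, buffer injection used for double referencing, kinetics fitted to a 1:1 binding model.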
Experimental: as §3, §4, §2
Assay [19] concerns the target T2, human Gro-beta. The assay can be described thus: Biacore SPR, KL: anti-mouse Fc capture; KL: anti-mouse Fc capture.
Experimental: as §1, §2
The target in assay [20] is T6, human GCP-2. The assay can be described thus: TRFIA, chemokine coated on plate, europium anti-human IgG detection; antibody concentration not given.
Assay [21] concerns the target T4, human Gro-gamma. The description is as above.
Experimental: as §5
Assay [22] addresses T5, human Gro-alpha. The description is as above.
Experimental: as §5
Assay [23] concerns the target T1, human ENA-78. Kind of assay: Biacore SPR, Protein A capture.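 Further: purified antibody captured on Protein A immobilised on a CM5 chip, chemokine analytes flowed over at defined concentrations, buffer injection for double referencing, kinetics fitted with a 1:1 binding model.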
Text: (§6) A Protein A capture method was used to generate kinetics for the humanised and chimeric constructs as follows:
(§7) Protein A is immobilised on a CM5 chip by primary amine coupling in accordance with the manufactures instructions. Purified humanised or chimeric antibody is captured on the Protein A surface. After capture defined concentrations of each analyte (IL8, Gro-β and ENA-78) are passed over the antibody captured surface, a separate capture event is used for each analyte injection. […] An injection of buffer is also injected over the antibody captured surface and this is used for double referencing. The data is analysed using the analysis software inherent to the machine, using the 1:1 model of binding.
In assay [24] the target is T3, human IL-8. Kind of assay: Biacore SPR, Protein A capture.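 Further: purified antibody captured on Protein A immobilised on a CM5 chip, chemokine analytes flowed over at defined concentrations, buffer injection for double referencing, kinetics fitted with a 1:1 binding model.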
Text: as §6, §7

Positions count from the first letter of the chain named. Several values for one entry are separate records, joined by “and”; a condition that tells them apart may be missing. Identical values can stand only once. Bounds are passed on as bounds.

Broadly, the Kd is a measure of binding affinity in units of concentration. Read a low Kd as higher affinity. A word on the koff: it is the rate constant with which the complex falls apart. A low value points to slow dissociation. What is called kon is the rate constant with which the complex forms. One may read the EC50 (read off the curve) as the concentration giving half of the maximal effect. A lower EC50 (read off the curve) goes with an effect from little substance.

Experimental for hIL-18: as §5

B1: mouse monoclonal antibody 656.35 (antibody, IgG2a, V domains shown)
VH: QVQLQQSGAELVRPGTSVTISCKASGYTFTNYWIVWVKQRPGHGLEWIGDLYSGGGYTFYSENFKGKATLTADTSSSTAYMHLISLTSEDSAVYFCARSGYDRTWFAHWGQGSLVTVSA
VL: DIKMTQSPSSMSASLGERVTITCQASQDIESYLSWYQQKPWKSPKTLIYYATRLADGVPSRFSGSGSGQDYSLTISSLESDDTATYYCLQHGESPPTFGAGTKLELKR
notes: Murine hybridoma mAb
Consider B1, for which the dissociation constant (Kd) was 1.74 nM with human ENA-78 [1]; 0.526 nM in the assay with human Gro-beta [2]; 0.964 nM in the assay with human IL-8 [3]; 0.271 nM with human ENA-78 [4]; 0.111 nM with human Gro-beta [5]; 0.0839 nM with human IL-8 [6]. For the same molecule, the koff was found to be 0.00187 s⁻¹ with human ENA-78 [1]; 0.00201 s⁻¹ with human Gro-beta [2]; 0.00148 s⁻¹ with human IL-8 [3]; 0.000796 s⁻¹ with human ENA-78 [4]; 0.00146 s⁻¹ with human Gro-beta [5]; 0.000687 s⁻¹ with human IL-8 [6]. Moreover, the kon with human ENA-78 [1] turned out to be 1.07e+06 M⁻¹ s⁻¹; in the assay with human Gro-beta [2] it was 3.82e+06 M⁻¹ s⁻¹; with human IL-8 [3], 1.53e+06 M⁻¹ s⁻¹; with human ENA-78 [4] it was 2.94e+06 M⁻¹ s⁻¹; with human Gro-beta [5], 1.32e+07 M⁻¹ s⁻¹; in the assay with human IL-8 [6], 8.19e+06 M⁻¹ s⁻¹. In addition, the concentration giving a half-maximal response (EC50 (read off the curve)) with human ENA-78 [7] is roughly 0.02 µg/mL; with human Gro-beta [8], roughly 0.02 µg/mL; with human IL-8 [9] it was roughly 0.03 µg/mL; in the assay with human Gro-gamma [10], roughly 0.02 µg/mL; with human Gro-alpha [11] it was roughly 0.03 µg/mL.

B2: Chimera Antibody (HcLc) made from 656.35 (antibody, human IgG1, kappa, V domains shown)
VH: B1 VH with A119S
VL: B1 VL
notes: also called the Chimera Antibody; chimera (HcLc)
As to B2, the “EC50 (read off the curve)” value with human ENA-78 [12] was roughly 0.04 µg/mL; with human GCP-2 [13], roughly 0.04 µg/mL; with human Gro-beta [14], roughly 0.04 µg/mL; with human IL-8 [15], roughly 0.07 µg/mL; with human Gro-gamma [16], roughly 0.04 µg/mL; with human Gro-alpha [17] it was roughly 0.05 µg/mL. Further, in the assay with hIL-18, the binding result is listed as “no binding (tested: 1000 ng/ml)”.

B3: mouse monoclonal antibody 197.2 (antibody, IgG2a, V domains shown)
VH: EFQLQQSGPELVKPGASVKISCKASGYSFTDYNMNWVKQSNGKSLEWIGVINPKYGTTSYNQKFKGKATLTVDQSSNTAYMQLSSLTSEDSAVYHCARGMGLLFGMDYWGQGTSVTVSS
VL: DIVMTQSPSSLSVSAGEKVTMSCKSSQSLLNSGNQKNYLAWYQQKPGQPPKLLIYGASTRKSGVPDRFTGSGSGTDFTLTISSVQAEDLAVYYCQNDHSFPCTFGGGTKLEIKR
notes: Murine hybridoma mAb
For the molecule B3, the koff with human Gro-beta [18] was less than 1e-05 s⁻¹; with human ENA-78 [1], 0.00269 s⁻¹; in the assay with human IL-8 [3] it was 0.00369 s⁻¹; in the assay with human Gro-beta [19], 0.000993 s⁻¹; in the assay with human ENA-78 [4], 0.00302 s⁻¹; with human IL-8 [6] it was 0.000499 s⁻¹. Also, the Kd was 9 nM with human ENA-78 [1]; 5.89 nM with human IL-8 [3]; 0.639 nM with human Gro-beta [19]; 10.1 nM in the assay with human ENA-78 [4]; less than 0.00962 nM in the assay with human Gro-beta [5]; 0.69 nM with human IL-8 [6]. Besides, the kon with human ENA-78 [1] was found to be 299000 M⁻¹ s⁻¹; with human IL-8 [3], 627000 M⁻¹ s⁻¹; in the assay with human Gro-beta [19], 1.55e+06 M⁻¹ s⁻¹; with human ENA-78 [4], 301000 M⁻¹ s⁻¹; with human Gro-beta [5], 1.04e+06 M⁻¹ s⁻¹; in the assay with human IL-8 [6] it was 723000 M⁻¹ s⁻¹.

B4: mouse monoclonal antibody 81.1 (antibody, IgG2a, V domains shown)
VH: EVQLQQSGPELEKPGASVKISCKASGYSFTVYGMNWVRQSNGKSLEWIGNFDPYFSVTSYNQKFQDKATLTVDKSSSTAYMQLKNLTSEDSAVYFCARGSWETIFAYWGQGTLVTVSA
VL: QAVVTQESALTTSPGETVTLTCRSSTGAVTTSNYANWVQEKPDHLFTGLIGGTNNRAPGVPARFSGSLIGDKAALTITGAQTEDEAIYFCALWYSNHVFGGGTKLTVLQ
notes: Murine hybridoma mAb
For B4, the Kd with human ENA-78 [1] turned out to be 0.616 nM; with human Gro-beta [2], 0.113 nM; with human IL-8 [3] it was 4.8 nM; with human ENA-78 [4], 0.0239 nM; with human Gro-beta [5], 0.0898 nM; with human IL-8 [6] it was 55.5 nM. Also, the off-rate constant (koff) with human ENA-78 [1] is 0.000376 s⁻¹; in the assay with human Gro-beta [2], 0.000312 s⁻¹; with human IL-8 [3], 0.00932 s⁻¹; with human ENA-78 [4] it was 3.94e-06 s⁻¹; in the assay with human Gro-beta [5], 0.000489 s⁻¹; in the assay with human IL-8 [6], 0.108 s⁻¹. For the same molecule, the on-rate constant (kon) in the assay with human ENA-78 [1] came to 611000 M⁻¹ s⁻¹; with human Gro-beta [2], 2.76e+06 M⁻¹ s⁻¹; with human IL-8 [3], 1.95e+06 M⁻¹ s⁻¹; with human ENA-78 [4], 165000 M⁻¹ s⁻¹; in the assay with human Gro-beta [5], 5.44e+06 M⁻¹ s⁻¹; with human IL-8 [6], 1.95e+06 M⁻¹ s⁻¹.

B5: humanized penta-specific antibody construct H0M0 (antibody, human IgG1, kappa, V domains shown)
VH: QVQLVQSGAEVKKPGASVKVSCKASGYTFTNYWIVWVRQAPGQGLEWMGDLYSGGGYTFYSENFKGRVTMTRDTSTSTVYMELSSLRSEDTAVYYCARSGYDRTWFAHWGQGTLVTVSS
VL: EIVLTQSPATLSLSPGERATLSCQASQDIESYLSWYQQKPGQAPRLLIYYATRLADGIPARFSGSGSGTDFTLTISSLEPEDFAVYYCLQHGESPPTFGQGTKLEIKR
notes: H0 mature heavy chain with M0 mature light chain
For the molecule B5, the binding result with human GCP-2 [20], in the assay with human Gro-gamma [21] and with human Gro-alpha [22] was “binds” each time.

B6: humanized penta-specific antibody construct H0L7 (antibody, human IgG1, kappa, V domains shown)
VH: B5 VH
VL: DIQMTQSPSSLSASVGDRVTITCQASQDIESYLSWYQQKPGKAPKLLIYYATRLADGVPSRFSGSGSGTDFTLTISSLQPEDFATYYCLQHGESPPTFGQGTKLEIKR
notes: H0 mature heavy chain with L7 mature light chain
As for B6, the binding result in the assay with human GCP-2 [20], with human Gro-gamma [21] and in the assay with human Gro-alpha [22] was “binds” in each case.

B7: humanized penta-specific antibody construct H0L8 (antibody, human IgG1, kappa, V domains shown)
VH: B5 VH
VL: B6 VL with L73F, F83I
notes: H0 mature heavy chain with L8 mature light chain
On to B7, for which the binding result with human GCP-2 [20], with human Gro-gamma [21] and with human Gro-alpha [22] was “binds” each time. Besides, the Kd is 0.1 nM and 0.0941 nM and 0.0912 nM and 0.0755 nM with human ENA-78 [23]; 0.188 nM and 0.143 nM and 0.175 nM and 0.152 nM with human IL-8 [24]. The koff was 0.000288 s⁻¹ and 0.000266 s⁻¹ and 0.000269 s⁻¹ and 0.000248 s⁻¹ with human ENA-78 [23]; 0.00111 s⁻¹ (2×) and 0.00113 s⁻¹ and 0.00119 s⁻¹ with human IL-8 [24]. The on-rate constant (kon) is 2.88e+06 M⁻¹ s⁻¹ and 2.82e+06 M⁻¹ s⁻¹ and 2.95e+06 M⁻¹ s⁻¹ and 3.29e+06 M⁻¹ s⁻¹ with human ENA-78 [23]; 5.9e+06 M⁻¹ s⁻¹ and 7.89e+06 M⁻¹ s⁻¹ and 6.8e+06 M⁻¹ s⁻¹ and 7.3e+06 M⁻¹ s⁻¹ in the assay with human IL-8 [24].

B8: humanized penta-specific antibody construct H0L10 (antibody, human IgG1, kappa, V domains shown)
VH: B5 VH
VL: B6 VL with T69Q, F71Y
notes: H0 mature heavy chain with L10 mature light chain
As to B8, the binding result in the assay with human GCP-2 [20], with human Gro-gamma [21] and with human Gro-alpha [22] was “binds” in each case. The dissociation constant (Kd) with human ENA-78 [23] is 0.0899 nM and 0.0722 nM and 0.0742 nM and 0.0613 nM.

These data come from patent US20080262203A1 (published 2008).
